Measurements reported in patent US20150072922A1, “RNASE 7 ANTIMICROBIAL PEPTIDES” (THE RESEARCH INSTITUTE AT NATIONWIDE CHILDREN'S HOSPITAL, priority 2012, published 2015).
“Also recorded” adds a separate entry of the source. Marks after values point to notes of the source that are not given here. Primed or numbered codes have the meaning given here. No end group written: not given here. *: point of attachment. His tag″ = six-residue histidine tag (His-tag) at the NH2-terminus, N[C@@H](Cc1c[nH]cn1)C(=O)N[C@@H](Cc1c[nH]cn1)C(=O)N[C@@H](Cc1c[nH]cn1)C(=O)N[C@@H](Cc1c[nH]cn1)C(=O)N[C@@H](Cc1c[nH]cn1)C(=O)N[C@@H](Cc1c[nH]cn1)C(=O)*; His tag = six-residue histidine tag at the N-terminus, N[C@@H](Cc1c[nH]cn1)C(=O)N[C@@H](Cc1c[nH]cn1)C(=O)N[C@@H](Cc1c[nH]cn1)C(=O)N[C@@H](Cc1c[nH]cn1)C(=O)N[C@@H](Cc1c[nH]cn1)C(=O)N[C@@H](Cc1c[nH]cn1)C(=O)*

B1: F:1-107: recombinant N-terminal RNase 7 fragment, amino acids 1 to 107 (SEQ ID NO: 6), N-terminal His tag (protein, listed as Homo sapiens)
chain: KPKGMTSSQWFKIQHMQPSPQACNSAMKNINKHTKRCKDLNTFLHEPFSSVAATCQTPKIACKNGDKNCHQSHGPVSLTMCKLTSGKYPNCRYKEKRQNKSYVVACK
modifications: N-terminal His tag
B2: F:30-128: recombinant C-terminal RNase 7 fragment, amino acids 30 to 128, N-terminal His tag (protein)
chain: INKHTKRCKDLNTFLHEPFSSVAATCQTPKIACKNGDKNCHQSHGPVSLTMCKLTSGKYPNCRYKEKRQNKSYVVACKPPQKKDSQQFHLVPVHLDRVL
modifications: left off: small tags and cut ends
notes: recombinant C-terminal RNase 7 fragment, amino acids 30 to 128, N-terminal His tag
B3: F:56-128: recombinant C-terminal RNase 7 fragment, amino acids 56 to 128, N-terminal His tag (protein)
chain: QTPKIACKNGDKNCHQSHGPVSLTMCKLTSGKYPNCRYKEKRQNKSYVVACKPPQKKDSQQFHLVPVHLDRVL
modifications: left off: small tags and cut ends
notes: recombinant C-terminal RNase 7 fragment, amino acids 56 to 128, N-terminal His tag
B4: F:46-128: recombinant C-terminal RNase 7 fragment, amino acids 46 to 128, N-terminal His tag (protein)
chain: EPFSSVAATCQTPKIACKNGDKNCHQSHGPVSLTMCKLTSGKYPNCRYKEKRQNKSYVVACKPPQKKDSQQFHLVPVHLDRVL
modifications: left off: small tags and cut ends
notes: recombinant C-terminal RNase 7 fragment, amino acids 46 to 128, N-terminal His tag
B5: F:1-83: recombinant N-terminal RNase 7 fragment, amino acids 1 to 83 (SEQ ID NO: 4), N-terminal His tag (protein, listed as Homo sapiens)
chain: KPKGMTSSQWFKIQHMQPSPQACNSAMKNINKHTKRCKDLNTFLHEPFSSVAATCQTPKIACKNGDKNCHQSHGPVSLTMCKL
modifications: N-terminal His tag

Legend:
[1] = test system: Escherichia coli (UTI89); test: Antimicrobial kill (microdilution) assay, MIC/MBC by CFU count; assay type: cell-based; details: for antimicrobial activity against E. coli (in words): MIC/MBC based, mostly compared to full-length RNase 7; for E. coli MIC: lowest concentration that inhibits the growth of 90% of the inoculation; for E. coli MIC / E. coli MBC: 3 hours, 0.1×PBS; for E. coli MBC: minimum bactericidal concentration
Protocol: (§1) The antimicrobial activity of RNase 7 and its fragments was estimated using a microdilution assay. Briefly, test bacteria (10^5) were incubated with several concentrations of RNase 7 and each fragment in 50 μl 0.1×PBS buffer for 3 hours in a 37° C. incubator. Each reaction was plated on the appropriate medium and grew overnight at 37° C. The antimicrobial activity was determined by the number of colony-forming units (CFUs) the following day. The minimum inhibition concentration (MIC) is defined as the lowest concentration that inhibits the growth of 90% of the inoculation and the minimum bactericidal concentration (MB C) is defined as the lowest concentration at which less than 99.99% of the initial inoculum is viable.
(§2) Antimicrobial activities of the recombinant peptides were estimated with a microdilution assay. Briefly, the test bacteria (10^4 CFUs) were incubated with various concentrations of RNase 7 and each fragment in 50 ul 0.1×PBS buffer for 3 hours at 37° C. After incubation on Agar plates overnight at 37° C., the number of colony-forming units (CFUs) at each peptide concentration was determined. Using untreated bacterial aliquots as baseline, the minimum inhibition concentration (MIC) was defined as the lowest concentration that inhibits the growth of 90% of the inoculation, and the minimum bactericidal concentration (MBC) was defined as the lowest concentration at which less than 99.99% of the initial inoculum is viable.

[2] = test system: Staphylococcus saprophyticus (ATCC 15305); test: as above; assay type: cell-based; details: for antimicrobial activity against S. saprophyticus (in words): MIC/MBC based, mostly compared to full-length RNase 7; for S. saprophyticus MIC: lowest concentration that inhibits the growth of 90% of the inoculation; for S. saprophyticus MIC / S. saprophyticus MBC: 3 hours, 0.1×PBS; for S. saprophyticus MBC: minimum bactericidal concentration
Protocol: as §1, §2

[3] = test system: Proteus mirabilis (ATCC 7002); test: as above; assay type: cell-based; details: for antimicrobial activity against P. mirabilis (in words): MIC/MBC based, mostly compared to full-length RNase 7; for P. mirabilis MIC: lowest concentration that inhibits the growth of 90% of the inoculation; for P. mirabilis MIC / P. mirabilis MBC: 3 hours, 0.1×PBS; for P. mirabilis MBC: minimum bactericidal concentration
Protocol: Uropathogenic Escherichia coli (UTI89) was grown in Luria broth (LB) medium and plated on LB-agar. Uropathogenic Staphylococcus saprophyticus (ATCC 15305) was grown in LB and plated on Trypticase Soy Agar with 5% sheep blood (Fisher Scientific, Pittsburgh, Pa., USA). Uropathogenic Proteus mirabilis (ATCC 7002) was grown in LB and plated on MacConkey II Agar (Fisher Scientific, Pittsburgh, Pa., USA). These organisms were chosen as the primary organisms that account for a majority of Gram-negative and Gram-positive urinary tract infections (UTI). Anti-RNase 7 antibody was generated in rabbit with recombinant human RNase 7 (Biomatik, Wilmington, Del., USA)
as §2

[4] = test system: Proteus mirabilis; test: Urinary condition functional assay (OD600 growth curves); assay type: cell-based
Protocol: (§3) Because the urinary environment can have significant variation in salt concentration, ionic composition, and pH, an antimicrobial/bacteriostatic assay was performed to evaluate if pH, calcium, or ionic strength affects the activity of full-length RNase7 or its fragments. The highest activity fragment F:1-97 and lowest activity fragment F:72-128 for these experiments were chosen. Bacteria were inoculated in 1% peptone water and growth to log phase with OD600=0.5. Bacteria were diluted to 1:10 and 1 μl added to 100 μl of 1% peptone water with various pH, CaCl2 or NaCl concentrations that correspond to a physiologic range present in the urine in a 96-well flat bottom plate (Thermo Scientific, Nunc, Worcester, Mass.). To each well, 2 μM of RNase7 or its fragments were added.
(§4) Bacterial growth was monitored using an Absorbance microplate reader (BioTek Instruments, Winooski, Vt.) at a final volume of 110 μl. The turbidity of the culture was measured and recorded at t=0 and every 20 min thereafter for 10 hours using the absorbance at 600 nm (OD600). The values of OD600 values were plotted against times to generate growth curves.

[5] = test system: S. saprophyticus; test: as above; assay type: cell-based, Staphylococcus saprophyticus
Protocol: as §3, §4

[6] = test system: E. coli; test: as above; assay type: cell-based, Escherichia coli; details: 2 μM peptide, 50, 150, 500 mM NaCl, OD600 for 10 hours, FIG. 4
Protocol: as §3, §4

Molecule | antimicrobial activity against E. coli (in words) [1] | E. coli MIC [1] | E. coli MBC [1] | antimicrobial activity against S. saprophyticus (in words) [2] | S. saprophyticus MIC [2] | S. saprophyticus MBC [2] | antimicrobial activity against P. mirabilis (in words) [3] | P. mirabilis MIC [3] | P. mirabilis MBC [3] | activity on Proteus mirabilis growth at various NaCl titers ([4]; 2 μM peptide, 50, 150, 500 mM NaCl, OD600 for 10 hours, FIG. 10) | activity on Proteus mirabilis growth at various pH levels ([4]; 2 μM peptide, pH 5, 7, 9, OD600 for 10 hours, FIG. 9) | activity on S. saprophyticus growth at various NaCl titers ([5]; 2 μM peptide, 50, 150, 500 mM NaCl, OD600 for 10 hours, FIG. 7) | activity on S. saprophyticus growth at various pH levels ([5]; 2 μM peptide, pH 5, 7, 9, OD600 for 10 hours, FIG. 6) | activity on E. coli growth at various NaCl titers [6]
F:84-128: recombinant C-terminal RNase 7 fragment, amino acids 84 to 128, N-terminal His tag ({His tag}-TSGKYPNCRYKEKRQNKSYVVACKPPQKKDSQQFHLVPVHLDRVL; cysteine pairing not given here) | poor antimicrobial function against all uropathogens | 1.92** uM | >3.5** uM | poor antimicrobial function against all uropathogens | 1.75 µM | 3.5* uM | poor antimicrobial function against all uropathogens | >3.5** uM | >3.5** uM | – | – | – | – | –
F:1-45: recombinant N-terminal RNase 7 fragment, amino acids 1 to 45 (SEQ ID NO: 2), N-terminal His tag ({His tag″}-KPKGMTSSQWFKIQHMQPSPQACNSAMKNINKHTKRCKDLNTFLH; ends and bridges not checked; listed as Homo sapiens) | – | 0.49 µM | 0.98 µM | – | 0.13 µM | 0.5 µM | no activity at high concentrations | >7** uM | >7** uM | – | – | – | – | –
F:72-128: recombinant C-terminal RNase 7 fragment, amino acids 72 to 128, N-terminal His tag ({His tag}-SHGPVSLTMCKLTSGKYPNCRYKEKRQNKSYVVACKPPQKKDSQQFHLVPVHLDRVL; ends and bridges not checked) | least activity | 3.5** uM | 7* uM | – | 3.5** uM | >7** uM | – | >3.5** uM | >3.5** uM | minimal activity against P. mirabilis at all NaCl concentrations | minimal activity with enhanced growth at pH 7 and 9 | minimal activity against S. saprophyticus at all NaCl concentrations | minimal activity with enhanced growth at pH 7 and 9; also recorded: grew better with the addition of F:72-128 at pH 7 and 9 | inhibitory effect of 500 mM NaCl against E. coli was diminished with the addition of F:72-128
B1 | – | 0.57 µM | 0.57 µM | – | 0.49 µM | >1.96* uM | – | .44 µM | .44 µM | – | – | – | – | –
B2 | – | 0.52 µM | 2.07 µM | – | 0.88* uM | .88 µM | – | >3.5** uM | >3.5** uM | – | – | – | – | –
B3 | – | 0.83 µM | 1.65 µM | MICs similar to full-length | 0.22 µM | 1.75* uM | – | >7** uM | >7** uM | – | – | – | – | –
B4 | – | 0.34 µM | .68 µM | MICs similar to full-length | 0.22 µM | 1.75* uM | – | 3.5 µM | >3.5** uM | – | – | – | – | –
B5 | – | 0.43 µM | 0.87 µM | – | 0.34 µM | 0.69 µM | – | .44 µM | .88 µM | – | – | – | – | –
